Results reported in patent US20220387586A1 (Hoffmann-La Roche, published 2022).
Like-named read-outs stand apart in the source and are kept apart here.

T1: recombinant Human LAG-3 Fc Chimera Protein (R&D Systems, 2319-L3) (human, UniProt P18627 29-450)
T1 construct: Bought protein; also called huLAG3; not shown: Fc part of the chimera
T1 sequence: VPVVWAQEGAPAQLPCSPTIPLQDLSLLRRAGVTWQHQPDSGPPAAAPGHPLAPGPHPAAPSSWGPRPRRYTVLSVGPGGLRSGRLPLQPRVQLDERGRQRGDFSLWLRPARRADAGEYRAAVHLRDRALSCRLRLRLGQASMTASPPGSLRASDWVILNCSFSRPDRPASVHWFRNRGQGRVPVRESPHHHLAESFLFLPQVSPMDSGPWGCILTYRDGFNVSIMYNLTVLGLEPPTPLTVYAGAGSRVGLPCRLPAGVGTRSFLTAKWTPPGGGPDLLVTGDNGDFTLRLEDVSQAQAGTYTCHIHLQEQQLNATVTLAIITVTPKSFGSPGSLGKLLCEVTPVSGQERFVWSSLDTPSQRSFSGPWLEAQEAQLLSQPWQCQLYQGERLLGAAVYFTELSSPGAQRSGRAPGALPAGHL

T2: LAG3 on cells (recombinant CHO cells expressing Lag3) (human, UniProt P18627 29-525)
T2 construct: The cell ELISA paragraphs say only 'Lag3'; also called CHO-LAG3; Lag3 cells
T2 sequence: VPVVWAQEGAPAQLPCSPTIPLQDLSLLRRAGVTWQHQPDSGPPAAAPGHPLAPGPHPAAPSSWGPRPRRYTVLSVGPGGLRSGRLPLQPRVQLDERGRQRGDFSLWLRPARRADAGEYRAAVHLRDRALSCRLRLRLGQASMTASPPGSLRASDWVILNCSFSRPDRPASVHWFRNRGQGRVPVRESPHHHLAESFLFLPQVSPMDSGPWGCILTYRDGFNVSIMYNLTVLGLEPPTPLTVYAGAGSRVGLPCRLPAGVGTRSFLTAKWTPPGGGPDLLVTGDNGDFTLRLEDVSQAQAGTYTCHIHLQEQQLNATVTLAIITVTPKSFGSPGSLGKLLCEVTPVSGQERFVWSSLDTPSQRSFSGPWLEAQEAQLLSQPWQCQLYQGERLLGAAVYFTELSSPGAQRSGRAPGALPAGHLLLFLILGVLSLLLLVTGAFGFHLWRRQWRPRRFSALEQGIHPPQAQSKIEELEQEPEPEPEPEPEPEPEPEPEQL

T3: biotinylated-Lag3 (UniProt P18627 23-450, limits assumed, biotinylated)
T3 construct: Probably a human LAG3 ECD construct; also called Lag3 (MHCII/ELISA)
T3 sequence (looked up): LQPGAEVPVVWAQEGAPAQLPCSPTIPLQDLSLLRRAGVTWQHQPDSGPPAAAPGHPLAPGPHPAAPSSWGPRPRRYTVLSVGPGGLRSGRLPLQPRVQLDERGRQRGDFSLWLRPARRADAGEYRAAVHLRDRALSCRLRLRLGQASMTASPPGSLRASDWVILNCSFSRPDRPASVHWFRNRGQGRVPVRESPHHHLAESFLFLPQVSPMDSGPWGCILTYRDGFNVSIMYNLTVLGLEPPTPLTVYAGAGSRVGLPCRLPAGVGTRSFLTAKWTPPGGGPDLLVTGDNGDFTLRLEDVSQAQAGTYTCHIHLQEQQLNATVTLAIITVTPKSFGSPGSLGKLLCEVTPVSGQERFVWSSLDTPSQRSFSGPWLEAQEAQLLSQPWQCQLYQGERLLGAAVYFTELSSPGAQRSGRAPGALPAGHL


Tests used:
[1] = target: T4, PD1 on PD1+LAG3+ human U2OS cells (UniProt Q15116 25-288); assay: cell-based or functional assay
T4 sequence (Q15116 25-288): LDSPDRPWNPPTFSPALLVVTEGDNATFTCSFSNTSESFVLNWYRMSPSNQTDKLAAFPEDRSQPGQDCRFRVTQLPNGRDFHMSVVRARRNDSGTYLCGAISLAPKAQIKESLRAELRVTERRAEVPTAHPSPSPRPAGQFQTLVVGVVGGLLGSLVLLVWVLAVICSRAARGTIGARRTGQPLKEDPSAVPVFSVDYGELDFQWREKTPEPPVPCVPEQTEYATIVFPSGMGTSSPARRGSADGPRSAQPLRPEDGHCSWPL

[2] = target: T1, recombinant Human LAG-3 Fc Chimera …; assay: ELISA on coated Human LAG-3 Fc Chimera (rel. EC50)
Experimental: After washing (3×90 μl/well with PBST-buffer) each well was incubated with 90 μl blocking buffer (PBS+2% BSA+0.05% Tween 20) for 1 h at room temperature. […] After washing (3×90 μl/well with PBST-buffer) 25 μl/well goat anti-Human Ig κ chain antibody-HRP conjugate (Milipore, AP502P) was added in a 1:2000 dilution and incubated at RT for 1 h. After washing (3×90 μl/well with PBST-buffer) 25 μl/well TMB substrate (Roche, 11835033001) was added and incubated for 2-10 min. Measurement took place on a Tecan Safire 2 instrument at 370/492 nm.

[3] = target: T2, LAG3 on cells (recombinant CHO cells …); assay: cell ELISA on recombinant CHO cells expressing Lag3 (rel. EC50)
Experimental: After washing (1×90 μl in PBST) cells were fixed by addition of 30 μl/well glutaraldehyde to a final concentration of 0.05% (Sigma Cat.No: G5882), 10 min at room temperature. After washing (3×90 μl/well with PBST-buffer) 25 μl/well goat anti-Human Ig κ chain antibody-HRP conjugate (Milipore, AP502P) was added in a 1:1000 dilution and incubated at RT for 1 h. After washing (3×90 μl/well with PBST-buffer) 25 μl/well TMB substrate (Roche, 11835033001) was added and incubated for 6-10 min. Measurement took place on a Tecan Safire 2 instrument at 370/492 nm.

[4] = target: T5, biotinylated PD1-ECD-AviHis (human, UniProt Q15116 25-170, biotinylated); assay: ELISA on coated biotinylated PD1-ECD-AviHis (rel. EC50)
T5 construct: also called huPD1; hu PD1; not shown: Avi-His tag
T5 sequence (Q15116 25-170): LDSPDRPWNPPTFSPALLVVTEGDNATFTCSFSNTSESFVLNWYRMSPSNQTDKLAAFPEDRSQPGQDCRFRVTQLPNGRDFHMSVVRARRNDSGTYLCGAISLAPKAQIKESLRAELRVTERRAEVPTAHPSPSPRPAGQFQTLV
Experimental: After washing (3×90 μl/well with PBST-buffer) 25 μl/well goat-anti-human H+L-POD (JIR, JIR109-036-098) was added in 1:5000 dilution and incubated at RT for 1 h on a shaker. After washing (3×90 μl/well with PBST-buffer) 25 μl/well of TMB substrate (Roche, 11835033001) was added and incubated until OD 2-3. Measurement took place at 370/492 nm.

biotinylated-Lag3 = target: T3, biotinylated-Lag3; assay: ELISA, inhibition of biotinylated-Lag3 binding to MHC-II on A375 cells (competitor MHC-II)
Experimental: 25 μl/well of A375 cells (10000 cells/well) were seeded into tissue culture treated 384-well plates (Corning, 3701) and incubated at 37° C. overnight. […] After washing (1×90 μl in PBST) cells were fixed by addition of 30 μl/well glutaraldehyde to a final concentration of 0.05% (Sigma Cat.No: G5882), 10 min at room temperature. After washing (3×90 μl/well with PBST-buffer) 25 μl/well Poly-HRP40-Streptavidin (Fitzgerald, 65R-S104PHRPx) was added in a 1:2000 or 1:8000 dilution and incubated at RT for 1 h. After washing (3×90 μl/well with PBST-buffer) 25 μl/well TMB substrate (Roche, 11835033001) was added and incubated for 2 to 10 min. Measurement took place on a Tecan Safire 2 instrument at 370/492 nm.

[5] = target: T4, PD1 on PD1+LAG3+ human U2OS cells; assay: cell-based or functional assay; remark: listed apart in the source
[6] = target: T6, full-length human PD1 on cells (human, UniProt Q15116 25-288); assay: cell ELISA on CHO-K1 cells expressing full-length human PD1 (rel. EC50)
T6 construct: also called CHO-PD1
T6 sequence (Q15116 25-288 limits assumed): as the sequence (Q15116 25-288) above
Experimental: (to avoid internalization). After washing carefully (1×90 μl/well PBST) cells were fixed by adding 30 μl/well 0.05% Glutaraldehyde (Sigma, Cat.No: G5882, 25%) diluted in 1×PBS-buffer and incubated for 10 min at RT. After washing (3×90 μl/well PBST) 25 μl/well secondary antibody was added for detection: goat-anti-human H+L-POD (JIR, JIR109-036-088)/Sheep-anti-mouse-POD (GE NA9310) followed by 1 h incubation at RT on shaker. After washing (3×90 μl/well PBST) 25 μl/well TMB substrate solution (Roche 11835033001) was added and incubated until OD 1.0-2.0. Plates were measured at 370/492 nm.

Binder | EC50 [pM], dimerization binding assay (chemoluminescence) [1] | EC50 [2] | EC50 [3] | EC50 [4] | IC50 (biotinylated-Lag3) | EC50 [pM], dimerization binding assay (chemoluminescence) [5] | EC50 [6]
PD1/LAG3 8310 (bispecific antibody, human IgG1, kappa, L234A L235A, 2+1 format: two LAG3 Fabs, one PD1 crossFab fused to the C-terminus of the Fc knob heavy chain) heavy 1: not shown heavy 2: EVQLLESGGGLVQPGGSLRLSCAASGFIFDDYTMNWVRQAPGKGLEWVAVISWDGGGTYYTDSVKGRFTISRDDFKNTLYLQMNSLRAEDTAVYYCAKGLTDTTLYGSDYWGQGTLVTVSSASTKGPSVFPLAPSSKSTSGGTAALGCLVEDYFPEPVTVSWNSGALTSGVHTFPAVLQSSGLYSLSSVVTVPSSSLGTQTYICNVNHKPSNTKVDEKVEPKSCDKTHTCPPCPAPEAAGGPSVFLFPPKPKDTLMISRTPEVTCVVVDVSHEDPEVKFNWYVDGVEVHNAKTKPREEQYNSTYRVVSVLTVLHQDWLNGKEYKCKVSNKALGAPIEKTISKAKGQPREPQVCTLPPSRDELTKNQVSLSCAVKGFYPSDIAVEWESNGQPENNYKTTPPVLDSDGSFFLVSKLTVDKSRWQQGNVFSCSVMHEALHNHYTQKSLSLSPGK light 1: DIVMTQSPDSLAVSLGERATINCKASESVDTSDNSFIHWYQQKPGQSPKLLIYRSSTLESGVPDRFSGSGSGTDFTLTISSLQAEDVAVYYCQQNYDVPWTFGQGTKVEIKSSASTKGPSVFPLAPSSKSTSGGTAALGCLVKDYFPEPVTVSWNSGALTSGVHTFPAVLQSSGLYSLSSVVTVPSSSLGTQTYICNVNHKPSNTKVDKKVEPKSC light 2: not shown | 114 pM | 0.06 nM | 0.2 nM | 0.06 nM | 0.47 nM | 28 pM | 0.34 nM
PD1/LAG3 8311 (bispecific antibody, human IgG1, kappa, L234A L235A, 2+1 format: two LAG3 Fabs, one PD1 crossFab fused to the C-terminus of the Fc knob heavy chain) heavy 1: not shown heavy 2: EVQLVESGGGLVQPGGSLRLACAASGFTFSDYAMSWVRQAPGKGLEWVSGIDNSGYYTYYTDSVKGRFTISRDDVKNTLYLQMNSLRAEDTAVYLCTKTHSGLIVNDAFDIWGQGTMVTVSSASTKGPSVFPLAPSSKSTSGGTAALGCLVEDYFPEPVTVSWNSGALTSGVHTFPAVLQSSGLYSLSSVVTVPSSSLGTQTYICNVNHKPSNTKVDEKVEPKSCDKTHTCPPCPAPEAAGGPSVFLFPPKPKDTLMISRTPEVTCVVVDVSHEDPEVKFNWYVDGVEVHNAKTKPREEQYNSTYRVVSVLTVLHQDWLNGKEYKCKVSNKALGAPIEKTISKAKGQPREPQVCTLPPSRDELTKNQVSLSCAVKGFYPSDIAVEWESNGQPENNYKTTPPVLDSDGSFFLVSKLTVDKSRWQQGNVFSCSVMHEALHNHYTQKSLSLSPGK light 1: DIVMTQSPDSLAVSLGERATINCKASESVDTSDNSFIHWYQQKPGQSPKLLIYRSSTLESGVPDRFSGSGSGTDFTLTISSLQAEDVAVYYCQQNYDVPWTFGQGTKVEIKSSASTKGPSVFPLAPSSKSTSGGTAALGCLVKDYFPEPVTVSWNSGALTSGVHTFPAVLQSSGLYSLSSVVTVPSSSLGTQTYICNVNHKPSNTKVDKKVEPKSC light 2: not shown | 124 pM | 0.06 nM | 0.17 nM | 0.05 nM | 0.39 nM | 119 pM | 0.32 nM

Binders with a lower EC50 [2], results first:

EC50 [pM], dimerization binding assay (chemoluminescence) [1] | EC50 [2] | EC50 [3] | EC50 [4] | IC50 (biotinylated-Lag3) | EC50 [pM], dimerization binding assay (chemoluminescence) [5] | EC50 [6] | Binder
91 pM | 0.05 nM | 0.17 nM | 0.05 nM | 0.44 nM | – | 0.54 nM | PD1/LAG3 8984 (bispecific antibody, human IgG1, kappa, L234A L235A, 2+2 format) heavy: not shown light 1: DIVMTQSPDSLAVSLGERATINCKASESVDTSDNSFIHWYQQKPGQSPKLLIYRSSTLESGVPDRFSGSGSGTDFTLTISSLQAEDVAVYYCQQNYDVPWTFGQGTKVEIKSSASTKGPSVFPLAPSSKSTSGGTAALGCLVKDYFPEPVTVSWNSGALTSGVHTFPAVLQSSGLYSLSSVVTVPSSSLGTQTYICNVNHKPSNTKVDKKVEPKSC light 2: not shown
83 pM | 0.04 nM | 0.2 nM | 0.05 nM | 0.45 nM | – | 0.46 nM | PD1/LAG3 8970 (bispecific antibody, human IgG1, kappa, L234A L235A, 2+2 format) heavy: not shown light 1: DIVMTQSPDSLAVSLGERATINCKASESVDTSDNSFIHWYQQKPGQSPKLLIYRSSTLESGVPDRFSGSGSGTDFTLTISSLQAEDVAVYYCQQNYDVPWTFGQGTKVEIKSSASTKGPSVFPLAPSSKSTSGGTAALGCLVKDYFPEPVTVSWNSGALTSGVHTFPAVLQSSGLYSLSSVVTVPSSSLGTQTYICNVNHKPSNTKVDKKVEPKSC light 2: not shown
